# Earlier results as cited in paper PMC2646799.
# Target: histone H3 acetyl-K9 peptide (Homo sapiens) (UniProt P68431)
substance,measurement,value
Polybromo-1 BrD3 (from UniProt Q86U86),Kd,1000 nM
